Earlier results as cited in patent US20230365625A1, “METHODS FOR TREATING AND/OR PREVENTING UNDESIRABLE SEQULAE OF NASAL TURBINOPLASTY OR FUNCTIONAL ENDOSCOPIC SINUS SURGERY” (3-D Matrix, Ltd., priority 2022, published 2023).
Entries after “also recorded” stand apart in the source; their conditions may differ. Like-named read-outs stand apart in the source and are kept apart here.

Columns and labels:
[1] = cited from earlier work
[2] = 1% in water; cited from earlier work
[3] = cited from earlier work; remark: listed apart in the source
[4] = tested on: punch hole injuries to the liver; settings: pig, in vivo; cited from earlier work
[5] = RADA16 2.5%, IEIK13 1.3%, QLEL12 0.15% in water; result in words; cited from earlier work
[6] = in solution before DMEM, RADA16 assumed 2.5% wt/vol, IEIK13 concentration unknown

Substance | Storage modulus G′ ([1]; 1% in water) | Increase in storage modulus G′ after DMEM treatment relative to before [2] | Storage modulus after DMEM treatment [2] | Gel stiffness compared to RADA16 ([3]; exposed to physiological conditions, result in words) | Median loss modulus G″ [3, 6] | Median storage modulus G′ [3, 6] | Inflammatory cell infiltration due to the gel in the wound [4] | Effect of gamma-irradiation sterilization [5] | Storage modulus G′ ([1]; 1.5% in water) | Storage modulus G′ ([1]; 2.5% in water)
Ac-IEIKIEIKIEIKI-NH2 [IEIK13] | ~700 Pa | 7.4 fold | 5314 Pa | forms a stiffer gel; also recorded: form a stiffer hydrogel matrix | 116 Pa | 1145 Pa | absence if inflammatory cell infiltration | enhanced the rheological properties | – | –
Ac-QLELQLELQLEL-NH2 [QLEL12, self-assembling peptide] | – | – | – | – | – | – | – | significant degradation and viscosity drop | – | –
KLDKLDKLDKLD [KLD12] | – | 23.9 fold | – | – | – | – | – | – | about 350 Pa | ~700 Pa
